Reference: patent US20210198360 (published 2021)

T1: human PD-L2-Fc (human, UniProt Q9BQ51)
T1 chain: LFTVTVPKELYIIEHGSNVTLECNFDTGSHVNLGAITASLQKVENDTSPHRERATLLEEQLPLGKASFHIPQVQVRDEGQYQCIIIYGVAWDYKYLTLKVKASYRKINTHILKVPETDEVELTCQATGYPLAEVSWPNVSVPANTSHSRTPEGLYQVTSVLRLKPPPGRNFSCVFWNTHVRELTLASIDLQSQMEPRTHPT

T2: human PD-L2-HIS (human, UniProt Q9BQ51)
T2 chain: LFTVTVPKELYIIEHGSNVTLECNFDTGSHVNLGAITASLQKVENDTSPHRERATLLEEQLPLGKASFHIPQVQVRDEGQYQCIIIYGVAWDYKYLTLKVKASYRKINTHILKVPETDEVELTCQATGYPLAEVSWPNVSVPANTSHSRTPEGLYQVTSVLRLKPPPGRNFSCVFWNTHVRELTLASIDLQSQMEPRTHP

T3: mouse PD-L2-Fc (mouse, UniProt Q9WUL5)
T3 chain: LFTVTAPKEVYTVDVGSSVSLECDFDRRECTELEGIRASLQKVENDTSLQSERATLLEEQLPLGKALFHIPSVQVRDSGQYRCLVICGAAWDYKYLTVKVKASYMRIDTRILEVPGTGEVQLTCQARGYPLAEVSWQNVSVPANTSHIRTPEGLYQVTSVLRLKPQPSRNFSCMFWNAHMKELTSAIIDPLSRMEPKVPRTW


Experiments:
[1] = biological target: T1, human PD-L2-Fc; assay: BLI, bivalent
[2] = biological target: human PD-L1-Fc (human); assay: BLI
[3] = biological target: T2, human PD-L2-HIS; assay: BLI, monovalent
[4] = biological target: human PD1-Fc (human, UniProt Q15116); assay: BLI, bivalent
[5] = biological target: T3, mouse PD-L2-Fc; assay: BLI, bivalent
[6] = biological target: T4, mouse PD-L1-Fc (mouse, UniProt Q9EP73); assay: BLI, bivalent
[7] = biological target: T1, human PD-L2-Fc; assay: BLI, monovalent
[8] = biological target: T4, mouse PD-L1-Fc; assay: BLI, bivalent; remark: listed apart in the source
[9] = biological target: human PD-L1-Fc (human); assay: BLI, bivalent

Chain of human PD1-Fc (Q15116 25-170): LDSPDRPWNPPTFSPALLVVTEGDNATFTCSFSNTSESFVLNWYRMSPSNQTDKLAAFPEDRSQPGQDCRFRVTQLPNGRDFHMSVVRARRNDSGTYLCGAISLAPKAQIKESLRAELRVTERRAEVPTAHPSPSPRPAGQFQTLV
Chain of human PD-L1-Fc (human) (chain, as listed by the source): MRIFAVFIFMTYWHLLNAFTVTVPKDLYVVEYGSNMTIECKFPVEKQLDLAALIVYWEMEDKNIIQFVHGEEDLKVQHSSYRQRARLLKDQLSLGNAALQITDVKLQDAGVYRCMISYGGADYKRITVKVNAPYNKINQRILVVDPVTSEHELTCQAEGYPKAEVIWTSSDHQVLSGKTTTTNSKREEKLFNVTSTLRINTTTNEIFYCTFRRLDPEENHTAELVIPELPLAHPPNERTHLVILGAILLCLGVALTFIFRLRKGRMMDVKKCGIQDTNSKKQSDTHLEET
T4 sequence (Q9EP73 19-239): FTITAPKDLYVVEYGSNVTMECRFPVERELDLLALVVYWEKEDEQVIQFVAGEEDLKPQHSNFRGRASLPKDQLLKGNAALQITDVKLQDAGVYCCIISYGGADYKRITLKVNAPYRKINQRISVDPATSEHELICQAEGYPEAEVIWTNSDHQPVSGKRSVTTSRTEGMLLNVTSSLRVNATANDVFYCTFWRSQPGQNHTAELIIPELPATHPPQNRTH

Row | Binder | binding result [1] | Kd [2] | binding result [3] | binding result [4] | binding result [5] | Kd [6] | binding result [7] | binding result [8] | Kd [9]
1 | ADI-20227 (antibody, V domains shown) VH: QVQLQESGPGLVKPSQTLSLTCTVSGGSIVSGGLYWSWIRQHPGKGLEWIGYIYYAGVTYYNPSLKSRVTISVDTSKNQFSLKLSSVTAADTAVYYCARGPRMGLAGMDVWGQGTTVTVSS VL: DIQMTQSPSSVSASVGDRVTITCRASQGISSWLAWYQQKPGKAPKLLIYAASSLQSGVPSRFSGSGSGTDFTLTISSLQPEDFATYYCQQANSFPITFGGGTKVEIK | no binding | 0.179 nM | no binding | no binding | no binding | 0.101 nM |  |  | 
2 | ADI-20227 Fab (antibody, V domains shown) VH: QVQLQESGPGLVKPSQTLSLTCTVSGGSIVSGGLYWSWIRQHPGKGLEWIGYIYYAGVTYYNPSLKSRVTISVDTSKNQFSLKLSSVTAADTAVYYCARGPRMGLAGMDVWGQGTTVTVSS VL: DIQMTQSPSSVSASVGDRVTITCRASQGISSWLAWYQQKPGKAPKLLIYAASSLQSGVPSRFSGSGSGTDFTLTISSLQPEDFATYYCQQANSFPITFGGGTKVEIK |  |  |  |  |  |  | no binding |  | 
3 | ADI-16403 (antibody, V domains shown) VH: EVQLVESGGGLVQPGGSLRLSCAASGFTFSSYWMSWVRQAPGKGLEWVANIKSDGSEKYYVDSVKGRFTISRDNAKNSLYLQMNSLRAEDTAVYYCARVTYWADYMDVWGKGTTVTVSS VL: DIQMTQSPSTLSASVGDRVTITCRASQSISSWLAWYQQKPGKAPKLLIYKASSLESGVPSRFSGSGSGTEFTLTISSLQPDDFATYYCQQSGSLPPTFGGGTKVEIK | no binding |  |  | no binding | no binding |  |  | no binding | 

Further lines, results first:

Row | binding result [1] | Kd [2] | binding result [3] | binding result [4] | binding result [5] | Kd [6] | binding result [7] | binding result [8] | Kd [9] | Binder
4 | no binding |  | no binding | no binding | no binding |  |  |  | 0.188 nM | ADI-20803 (antibody, V domains shown) VH: QVQLVQSGAEVKKPGSSVKVSCKASGGTFRLYAISWVRQAPGQGLEWMGSIIPGFGSANYAQKFQGRVTITADESTSTAYMELSSLRSEDTAVYYCARDGGGGTSAYSFDPWGQGTLVTVSS VL: EIVLTQSPATLSLSPGERATLSCRASQSVSSYLAWYQQKPGQAPRLLIYDASNRATGIPARFSGSGSGTDFTLTISSLEPEDFAVYYCQQSINFPYTFGGGTKVEIK
5 |  |  |  |  |  |  | no binding |  |  | ADI-20803 Fab (antibody, V domains shown) VH: QVQLVQSGAEVKKPGSSVKVSCKASGGTFRLYAISWVRQAPGQGLEWMGSIIPGFGSANYAQKFQGRVTITADESTSTAYMELSSLRSEDTAVYYCARDGGGGTSAYSFDPWGQGTLVTVSS VL: EIVLTQSPATLSLSPGERATLSCRASQSVSSYLAWYQQKPGQAPRLLIYDASNRATGIPARFSGSGSGTDFTLTISSLEPEDFAVYYCQQSINFPYTFGGGTKVEIK
